Reference: US20030119038A1, “NARC1, novel subtilase-like homologs” (priority 1999, published 2003)
Entries after “also recorded” stand apart in the source; their conditions may differ. Like-named read-outs stand apart in the source and are kept apart here.

Assays:
[1] = tested on: NARC1 transfectants
Experimental: Following transient expression of this construct in CGNs, the percentage of GFP positive and GFP negative cells undergoing apoptosis was determined by Laser-Scanning Cytometry.
Following transient expression of the wild-type and point-mutant NARC1 constructs in CGNs, the percentage of GFP-positive cells undergoing apoptosis was determined by Laser-Scanning Cytometry.
The serine protease inhibitors Aminoethyl-benzene sulfonyl fluoride, an irreversible inhibitor (AEBSF), Aprotinin, a reversible inhibitor, and N-Tosyl-lysine-chloromethylketone (TLCK, an inhibitor known to covalently bind to serine proteases) were investigated to see if any of these reagents can rescue the cell death effects of wild-type NARC1. Caspase 9 transfection was included to test for specificity of any rescue effects.
CGNs were transfected with each of the C-terminal truncation mutants described above. Following transient expression of these constructs, the percentage of GFP positive cells undergoing apoptosis was determined by Laser-Scanning Cytometry.

[2] = tested on: cerebellar granule neurons (CGNs); test: Apoptosis after transient expression of NARC1-EGFP constructs in CGNs, Laser-Scanning Cytometry; assay type: cell-based, rat; conditions: for Resulting Cell Death Activity: EGFP construct transiently expressed in CGNs, percentage of GFP-positive cells undergoing apoptosis; for BAF sensitivity of induced cell death: CGNs, 100 μM BAF
From the text: Cerebellar granule neurons (CGNs) were transfected with a NARC1-enhanced green fluorescent protein (EGFP) expression construct (with the EGFP sequences located at the carboxy terminus of the fusion protein). Unless otherwise indicated, the construct utilized in the following experiments contained 2073 base pairs of the rat NARC1 transcript set forth in FIG. 5. Specifically, this corresponds to nucleotides 205-2277 and amino acid residues 56-746 of SEQ ID NO:4 and SEQ ID NO:3, respectively. The polypeptide sequence encoded by the NARC1 insert utilized herein has been set forth as SEQ ID NO:9 herein. The nucleotide sequence of this insert has been set forth as SEQ ID NO:10.
To investigate NARC1-mediated neuronal cell death, transient expression of the EGFP clones was carried out in cerebellar granule neurons (CGNs). These studies are set forth in detail as follows.

[3] = tested on: NARC1; test: Autoprocessing of NARC1 transiently expressed in COS-7 cells, Western blotting; assay type: cell-based, rat; conditions: C-terminal myc/His fusion transiently expressed in COS-7 cells, 60 kD processing product on Western blot
Experimental: The wild-type NARC1-myc/His clone was transiently expressed in COS-7 cells. The cells were then harvested, lysed, and the protein extracted. Polyacrylamide gel electrophoresis was then carried out on the protein extracts, followed by Western blotting. The resulting membranes were probed using both anti-myc- and NARC1-specific antibodies. Routine techniques and protocols were followed. See, e.g., Ausubel et al.(1998), supra.
This cleavage event maps to approximately the junction between the pro-domain and the enzymatic domain.
Autoprocessing of NARC1 was investigated as follows. COS-7 cells were co-transfected with the following EGFP and myc plasmids: (A) wild-type NARC1-myc and wild-type NARC1-EGFP; (B) S385A NARC1-myc and S385A NARC1-EGFP; and (C) wild-type NARC1-myc and S385A NARC1-myc. The cells were then harvested, lysed, and the protein extracted. Polyacrylamide gel electrophoresis was then carried out on the protein extracts, followed by Western blotting. The resulting membranes were sequentially probed using first the anti-myc and then the anti-EGFP monoclonal antibodies (Abs). Thus, the experiment allowed sequential detection of the separate NARC1 products encoded from the two co-transfected plasmids.
As indicated above, a series of C-terminal truncation mutants were generated. The truncation NARC1-myc/His clones were transiently expressed in COS-7 cells. The cells were then harvested, lysed, the protein extracted, and polyacrylamide gel electrophoresis carried out on the protein extracts. Western analysis was then carried out using both anti-myc and NARC1-specific antibodies.

Molecule	Rescue of cell death in NARC1 transfectants ([1]; 24-hour exposure)	Rescue of cell death in NARC1 transfectants ([1]; 48-hour exposure)	Resulting Cell Death Activity [2]	Autoprocessing Activity [3]	BAF sensitivity of induced cell death [2]	Autoprocessing Activity ([3]; listed as V507 C-terminal truncation mutant)	Autoprocessing Activity ([3]; listed as V507 truncation)
Aprotinin	some suggestion of rescue	increased effectiveness	–	–	–	–	–
Deletion of residues L147-M425, inclusive: NARC1 subtilase deletion, large; removes entire subtilase domain (protein, mutant of rat sequence deletion mutant removes amino acids Leu147-Met425, inclusive, of SEQ ID NO9, NARC1 subtilase deletion, large; removes entire subtilase domain) MGIRCSTWLRWPLSPQLLLLLLLCPTGSRAQDEDGDYEELMLALPSQEDSLVDEASHVATATFRRCSKEAWRLPGTYVVVLMEETQRLQVEQTAHRLQTWAARRGYVIKVLHVFYDLFPGFLVKMSSDLLGLALKLPHVEYIEEDSAWFPEDQRVLTPNRVATLPPSTQETGGQLLCRTVWSAHSGPTRTATATARCAPEEELLSCSSFSRSGRRRGDRIEAIGGQQVCKALNAFGGEGVYAVARCCLLPRVNCSIHNTPAARAGPQTPVHCHQKDHVLTGCSFHWEVENLRAQQQPLLRSRHQPGQCVGHQEASVHASCCHAPGLECKIKEHGIAGPAEQVTVACEAGWTLTGCNVLPGASLPLGAYSVDNVCVARIRDAGRADRTSEEATVAAAICCRSRPSAKASWVHQ	–	–	Reduced activity.	Absence of processing.	–	–	–
Deletion of residues Q218-A392, inclusive: NARC1 subtilase deletion, small; removes much of the subtilase domain including active site residues (protein, mutant of rat sequence deletion mutant removes Gln218-Ala392, inclusive, of SEQ ID NO9) MGIRCSTWLRWPLSPQLLLLLLLCPTGSRAQDEDGDYEELMLALPSQEDSLVDEASHVATATFRRCSKEAWRLPGTYVVVLMEETQRLQVEQTAHRLQTWAARRGYVIKVLHVFYDLFPGFLVKMSSDLLGLALKLPHVEYIEEDSLVFAQSIPWNLERIIPAWQQTEEDSSPDGSSQVEVYLLDTSIQSGHREIEGRVTITDFNSVPEEDGTRFHRGIVAMMLNRDPALTLAELRQRLILFSTKDVINMAWFPEDQRVLTPNRVATLPPSTQETGGQLLCRTVWSAHSGPTRTATATARCAPEEELLSCSSFSRSGRRRGDRIEAIGGQQVCKALNAFGGEGVYAVARCCLLPRVNCSIHNTPAARAGPQTPVHCHQKDHVLTGCSFHWEVENLRAQQQPLLRSRHQPGQCVGHQEASVHASCCHAPGLECKIKEHGIAGPAEQVTVACEAGWTLTGCNVLPGASLPLGAYSVDNVCVARIRDAGRADRTSEEATVAAAICCRSRPSAKASWVHQ	–	–	Reduced activity.	Absence of processing.	–	–	–
C-terminal truncation V507: NARC1 terminating at residue V507; much of the CRR removed (protein, mutant of rat sequence truncated mutant ends at amino acid Val507, NARC1 terminating at residue V507; much of the CRR removed) MGIRCSTWLRWPLSPQLLLLLLLCPTGSRAQDEDGDYEELMLALPSQEDSLVDEASHVATATFRRCSKEAWRLPGTYVVVLMEETQRLQVEQTAHRLQTWAARRGYVIKVLHVFYDLFPGFLVKMSSDLLGLALKLPHVEYIEEDSLVFAQSIPWNLERIIPAWQQTEEDSSPDGSSQVEVYLLDTSIQSGHREIEGRVTITDFNSVPEEDGTRFHRQASKCDSHGTHLAGVVSGRDAGVAKGTSLHSLRVLNCQGKGTVSGTLIGLEFIRKSQLIQPSGPLVVLLPLAGGYSRILNTACQRLARTGVVLVAAAGNFRDDACLYSPASAPEVITVGATNAQDQPVTLGTLGTNFGRCVDLFAPGKDIIGASSDCSTCYMSQSGTSQAAAHVAGIVAMMLNRDPALTLAELRQRLILFSTKDVINMAWFPEDQRVLTPNRVATLPPSTQETGGQLLCRTVWSAHSGPTRTATATARCAPEEELLSCSSFSRSGRRRGDRIEAIGGQQV	–	–	Induces wild type	Marked increase in	insensitive.	markedly increased level of autoprocessing	increased rate of processing
C-terminal truncation M425: NARC1 terminating at residue M425; all of the cysteine-rich region removed (protein, mutant of rat sequence truncated sequence ends at amino acid Met 425, NARC1 terminating at residue M425; all of the cysteine-rich region removed) MGIRCSTWLRWPLSPQLLLLLLLCPTGSRAQDEDGDYEELMLALPSQEDSLVDEASHVATATFRRCSKEAWRLPGTYVVVLMEETQRLQVEQTAHRLQTWAARRGYVIKVLHVFYDLFPGFLVKMSSDLLGLALKLPHVEYIEEDSLVFAQSIPWNLERIIPAWQQTEEDSSPDGSSQVEVYLLDTSIQSGHREIEGRVTITDFNSVPEEDGTRFHRQASKCDSHGTHLAGVVSGRDAGVAKGTSLHSLRVLNCQGKGTVSGTLIGLEFIRKSQLIQPSGPLVVLLPLAGGYSRILNTACQRLARTGVVLVAAAGNFRDDACLYSPASAPEVITVGATNAQDQPVTLGTLGTNFGRCVDLFAPGKDIIGASSDCSTCYMSQSGTSQAAAHVAGIVAMMLNRDPALTLAELRQRLILFSTKDVINM	–	–	Induces wild type	Normal processing.	insensitive.	–	–
H225W: Full-length NARC1 point mutant; mutation of the active site histidine (protein, mutant of rat sequence mutating amino acid His225Trp of SEQ ID NO9) MGIRCSTWLRWPLSPQLLLLLLLCPTGSRAQDEDGDYEELMLALPSQEDSLVDEASHVATATFRRCSKEAWRLPGTYVVVLMEETQRLQVEQTAHRLQTWAARRGYVIKVLHVFYDLFPGFLVKMSSDLLGLALKLPHVEYIEEDSLVFAQSIPWNLERIIPAWQQTEEDSSPDGSSQVEVYLLDTSIQSGHREIEGRVTITDFNSVPEEDGTRFHRQASKCDSWGTHLAGVVSGRDAGVAKGTSLHSLRVLNCQGKGTVSGTLIGLEFIRKSQLIQPSGPLVVLLPLAGGYSRILNTACQRLARTGVVLVAAAGNFRDDACLYSPASAPEVITVGATNAQDQPVTLGTLGTNFGRCVDLFAPGKDIIGASSDCSTCYMSQSGTSQAAAHVAGIVAMMLNRDPALTLAELRQRLILFSTKDVINMAWFPEDQRVLTPNRVATLPPSTQETGGQLLCRTVWSAHSGPTRTATATARCAPEEELLSCSSFSRSGRRRGDRIEAIGGQQVCKALNAFGGEGVYAVARCCLLPRVNCSIHNTPAARAGPQTPVHCHQKDHVLTGCSFHWEVENLRAQQQPLLRSRHQPGQCVGHQEASVHASCCHAPGLECKIKEHGIAGPAEQVTVACEAGWTLTGCNVLPGASLPLGAYSVDNVCVARIRDAGRADRTSEEATVAAAICCRSRPSAKASWVHQ	–	–	essentially a wild-type phenotype; also recorded: no effect on the cell death phenotype	reduces autoprocessing; also recorded: Reduced processing	–	–	–
C-terminal truncation Q453: NARC1 terminating at residue Q453; most of the CRR removed (protein, mutant of rat sequence truncated sequence ends at amino acid Gln453) MGIRCSTWLRWPLSPQLLLLLLLCPTGSRAQDEDGDYEELMLALPSQEDSLVDEASHVATATFRRCSKEAWRLPGTYVVVLMEETQRLQVEQTAHRLQTWAARRGYVIKVLHVFYDLFPGFLVKMSSDLLGLALKLPHVEYIEEDSLVFAQSIPWNLERIIPAWQQTEEDSSPDGSSQVEVYLLDTSIQSGHREIEGRVTITDFNSVPEEDGTRFHRQASKCDSHGTHLAGVVSGRDAGVAKGTSLHSLRVLNCQGKGTVSGTLIGLEFIRKSQLIQPSGPLVVLLPLAGGYSRILNTACQRLARTGVVLVAAAGNFRDDACLYSPASAPEVITVGATNAQDQPVTLGTLGTNFGRCVDLFAPGKDIIGASSDCSTCYMSQSGTSQAAAHVAGIVAMMLNRDPALTLAELRQRLILFSTKDVINMAWFPEDQRVLTPNRVATLPPSTQETGGQ	–	–	Induces wild type	Normal processing.	insensitive.	–	–
